According to patent US20210371520A1 (AGILENT TECHNOLOGIES, published 2021):

Target: T1, human LAG-3 (Lymphocyte-Activation Gene 3) protein (human, UniProt P18627 23-525)
T1 construct: whole, on cells; Endogenous LAG-3 in normal and tumour tissue sections (IHC), not a recombinant protein; also called CD223
T1 sequence (looked up): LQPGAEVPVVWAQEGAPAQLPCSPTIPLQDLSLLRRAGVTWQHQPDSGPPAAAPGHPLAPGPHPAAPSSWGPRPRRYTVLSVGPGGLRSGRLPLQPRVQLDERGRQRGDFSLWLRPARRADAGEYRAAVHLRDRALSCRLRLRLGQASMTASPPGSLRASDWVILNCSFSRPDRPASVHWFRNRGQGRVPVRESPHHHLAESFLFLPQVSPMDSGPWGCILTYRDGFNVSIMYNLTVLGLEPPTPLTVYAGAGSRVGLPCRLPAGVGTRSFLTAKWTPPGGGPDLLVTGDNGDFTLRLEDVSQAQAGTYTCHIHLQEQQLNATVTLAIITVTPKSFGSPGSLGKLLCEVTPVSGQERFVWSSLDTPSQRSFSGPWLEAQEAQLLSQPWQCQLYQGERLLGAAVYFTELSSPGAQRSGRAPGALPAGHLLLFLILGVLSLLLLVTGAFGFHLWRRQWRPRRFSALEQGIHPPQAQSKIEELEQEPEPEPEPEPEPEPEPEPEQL
Assay: double IHC staining on normal tonsil
Description: FIG. 9 illustrates tumor tissue samples of Lung Squamous cell Carcinoma (SQC) (FIG. 10) and kidney renal cell carcinoma (RCC) (FIG. 11); the double IHC staining method follows the protocol of Petersen, et al. 2018 [18] using the EnVision FLEX+™ system in a sequential manner, where the exemplary LAG-3 antibody, clone 12H8 (HRP DAB chromagen) constitutes the first layer followed by a sulfuric acid block step and adding an extra EnVision FLEX+™ staining layer on top with PD1 antibody, clone NAT105 (magenta chromogen)); and FIG. 9 illustrates that LAG-3 is co-localized with the PD1 T cell marker in a subpopulation of activated T cells in the germinal center of the tonsil. Other cells belonging to the activated T cell population is only stained by PD1. The B lymphocytes in the germinal center are negative for both the LAG-3 and the PD1 antibody, illustrating the specificity of both these antibodies: (Red arrow: strongly LAG-3 positive, DAB overshadows magenta PD1. Green arrow: weakly pos LAG-3 with both DAB membrane and DAB golgi and PD1 magenta stain visible). PD1 positive, LAG-3 negative T cells: (orange arrow).

B1: rabbit anti-human LAG-3 antibody, clone 12H8 (antibody, V domains shown)
VH: QSVKESEGGLFKPTDTLTLTCTVSGIDLSSGILVWVRQAPGSGLEWIGGIDANGRAYYASWAKSRSTITRNTNENTVTLKMTSLTAADTATYFCAGGAWNIWGPGTLVTVSS
VL: AQVLTQTPSPVSAAVGGTVTIKCQSSQSVYDSNTLAWFQQKPGQPPKLLMYSASTLAFGVPSRFSGSGSGTQFTLTISDLECADAATYYCLGSYDCSSVDCTAFGGGTEVVVK
notes: also called LAG-3 clone 12H8; exemplary LAG-3 antibody
binding result: binds
